Assay results as given in US7071301.

Key:
Test in all cases: cell-based or functional assay
[1] = target: Chimera I (mouse-human chimeric receptor, first part from ERR) (mouse; human)
[2] = target: Chimera II (mouse-human chimeric receptor, last part from ERR) (human; mouse)
[3] = target: Chimera III (H13 with NcoI-NcoI fragment from ERR) (human / mouse)
ERR Mutant 1 (mouse) = ERR Mutant 1 (mouse) (UniProt Q09143)
ERR Mutant 10 (mouse) = ERR Mutant 10 (mouse) (UniProt Q09143)
ERR Mutant 11 (mouse) = ERR Mutant 11 (mouse) (UniProt Q09143)
ERR Mutant 2 (mouse) = ERR Mutant 2 (mouse) (UniProt Q09143)
ERR Mutant 3 (mouse) = ERR Mutant 3 (mouse) (UniProt Q09143)
ERR Mutant 4 (mouse) = ERR Mutant 4 (mouse) (UniProt Q09143)
ERR Mutant 5 (mouse) = ERR Mutant 5 (mouse) (UniProt Q09143)
ERR Mutant 6 (mouse) = ERR Mutant 6 (mouse) (UniProt Q09143)
ERR Mutant 7 (mouse) = ERR Mutant 7 (mouse) (UniProt Q09143)
ERR Mutant 8 (mouse) = ERR Mutant 8 (mouse) (UniProt Q09143)
ERR Mutant 9 (mouse) = ERR Mutant 9 (mouse) (UniProt Q09143)
human H13 (human) = human H13 (human) (UniProt P30825)
[4] = target: murine ecotropic retroviral receptor (ERR) (mouse) (UniProt Q09143)

Sequence of UniProt P30825 (P30825 other isoform, or with tags, fused parts or gaps): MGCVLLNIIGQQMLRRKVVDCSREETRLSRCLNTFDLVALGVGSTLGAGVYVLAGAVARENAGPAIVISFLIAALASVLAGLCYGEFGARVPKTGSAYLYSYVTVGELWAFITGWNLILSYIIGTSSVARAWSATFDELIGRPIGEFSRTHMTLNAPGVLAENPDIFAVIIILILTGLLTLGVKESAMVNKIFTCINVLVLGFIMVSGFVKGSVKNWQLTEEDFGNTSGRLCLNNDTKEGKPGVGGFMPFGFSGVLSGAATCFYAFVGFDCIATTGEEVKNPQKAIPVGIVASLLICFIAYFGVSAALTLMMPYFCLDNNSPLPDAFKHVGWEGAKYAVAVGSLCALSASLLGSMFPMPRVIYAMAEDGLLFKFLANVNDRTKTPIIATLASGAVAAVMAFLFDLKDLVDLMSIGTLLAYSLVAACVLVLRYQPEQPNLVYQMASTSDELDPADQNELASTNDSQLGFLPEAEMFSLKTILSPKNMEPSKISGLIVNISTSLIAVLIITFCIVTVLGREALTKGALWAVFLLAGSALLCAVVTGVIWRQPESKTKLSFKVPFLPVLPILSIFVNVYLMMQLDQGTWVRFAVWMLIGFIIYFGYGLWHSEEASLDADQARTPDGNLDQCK

recombinant MuLV-E, ψCRE/BAG virions (from UniProt P03385 34-469)
numbers of G418-resistant colonies [1]: 1000 colonies
numbers of G418-resistant colonies [2]: 0 colonies
numbers of G418-resistant colonies [3]: 1000 colonies
colonies (ERR Mutant 1 (mouse)): 500 colonies
colonies (ERR Mutant 10 (mouse)): 500 colonies
colonies (ERR Mutant 11 (mouse)): 500 colonies
colonies (ERR Mutant 2 (mouse)): 500 colonies
colonies (ERR Mutant 3 (mouse)): 500 colonies
colonies (ERR Mutant 4 (mouse)): 500 colonies
colonies (ERR Mutant 5 (mouse)): 500 colonies
colonies (ERR Mutant 6 (mouse)): 500 colonies
colonies (ERR Mutant 7 (mouse)): 0 colonies
colonies (ERR Mutant 8 (mouse)): 500 colonies
colonies (ERR Mutant 9 (mouse)): 500 colonies
numbers of G418-resistant colonies (human H13 (human)): 0 colonies
numbers of G418-resistant colonies [4]: > 1000 colonies
